Molecular target: the molecule itself
Test: cryo-EM structure

B1: full length human Top2α (1-1531) (enzyme)
chain: MEVSPLQPVNENMQVNKIKKNEDAKKRLSVERIYQKKTQLEHILLRPDTYIGSVELVTQQMWVYDEDVGINYREVTFVPGLYKIFDEILVNAADNKQRDPKMSCIRVTIDPENNLISIWNNGKGIPVVEHKVEKMYVPALIFGQLLTSSNYDDDEKKVTGGRNGYGAKLCNIFSTKFTVETASREYKKMFKQTWMDNMGRAGEMELKPFNGEDYTCITFQPDLSKFKMQSLDKDIVALMVRRAYDIAGSTKDVKVFLNGNKLPVKGFRSYVDMYLKDKLDETGNSLKVIHEQVNHRWEVCLTMSEKGFQQISFVNSIATSKGGRHVDYVADQIVTKLVDVVKKKNKGGVAVKAHQVKNHMWIFVNALIENPTFDSQTKENMTLQPKSFGSTCQLSEKFIKAAIGCGIVESILNWVKFKAQVQLNKKCSAVKHNRIKGIPKLDDANDAGGRNSTECTLILTEGDSAKTLAVSGLGVVGRDKYGVFPLRGKILNVREASHKQIMENAEINNIIKIVGLQYKKNYEDEDSLKTLRYGKIMIMTDQDQDGSHIKGLLINFIHHNWPSLLRHRFLEEFITPIVKVSKNKQEMAFYSLPEFEEWKSSTPNHKKWKVKYYKGLGTSTSKEAKEYFADMKRHRIQFKYSGPEDDAAISLAFSKKQIDDRKEWLTNFMEDRRQRKLLGLPEDYLYGQTTTYLTYNDFINKELILFSNSDNERSIPSMVDGLKPGQRKVLFTCFKRNDKREVKVAQLAGSVAEMSSYHHGEMSLMMTIINLAQNFVGSNNLNLLQPIGQFGTRLHGGKDSASPRYIFTMLSSLARLLFPPKDDHTLKFLYDDNQRVEPEWYIPIIPMVLINGAEGIGTGWSCKIPNFDVREIVNNIRRLMDGEEPLPMLPSYKNFKGTIEELAPNQYVISGEVAILNSTTIEISELPVRTWTQTYKEQVLEPMLNGTEKTPPLITDYREYHTDTTVKFVVKMTEEKLAEAERVGLHKVFKLQTSLTCNSMVLFDHVGCLKKYDTVLDILRDFFELRLKYYGLRKEWLLGMLGAESAKLNNQARFILEKIDGKIIIENKPKKELIKVLIQRGYDSDPVKAWKEAQQKVPDEEENEESDNEKETEKSDSVTDSGPTFNYLLDMPLWYLTKEKKDELCRLRNEKEQELDTLKRKSPSDLWKEDLATFIEELEAVEAKEKQDEQVGLPGKGGKAKGKKTQMAEVLPSPRGQRVIPRITIEMKAEAEKKNKKKIKNENTEGSPQEDGVELEGLKQRLEKKQKREPGTKTKKQTTLAFKPIKKGKKRNPWSDSESDRSSDESNFDVPPRETEPRRAATKTKFTMDLDSDEDFSDFDEKTDDEDFVPSDASPPKTKTSPKLSNKELKPQKSVVSDLEADDVKGSVPLSSSPPATHFPDETEITNPVPKKNVTVKKTAAKSQSSTSTTGAKKRAAPKGTKRDPALNSGVSQKPDPAKTKNRRKRKPSTSDDSDSNFEKIVSKAVTSKKSKGESDDFHMDFDSAVAPRAKSVRAKKPIKYLEESDEDDLF
stoichiometry N: 2

— paper doi:10.1101/2020.08.23.263558 (bioRxiv, 2020)
